The target of one series is T1, human recombinant CD206 (Homo sapiens, UniProt P22897).
T1 construct: purchased R&D systems 2534-MR-050/CF
T1 sequence (P22897 19-1456): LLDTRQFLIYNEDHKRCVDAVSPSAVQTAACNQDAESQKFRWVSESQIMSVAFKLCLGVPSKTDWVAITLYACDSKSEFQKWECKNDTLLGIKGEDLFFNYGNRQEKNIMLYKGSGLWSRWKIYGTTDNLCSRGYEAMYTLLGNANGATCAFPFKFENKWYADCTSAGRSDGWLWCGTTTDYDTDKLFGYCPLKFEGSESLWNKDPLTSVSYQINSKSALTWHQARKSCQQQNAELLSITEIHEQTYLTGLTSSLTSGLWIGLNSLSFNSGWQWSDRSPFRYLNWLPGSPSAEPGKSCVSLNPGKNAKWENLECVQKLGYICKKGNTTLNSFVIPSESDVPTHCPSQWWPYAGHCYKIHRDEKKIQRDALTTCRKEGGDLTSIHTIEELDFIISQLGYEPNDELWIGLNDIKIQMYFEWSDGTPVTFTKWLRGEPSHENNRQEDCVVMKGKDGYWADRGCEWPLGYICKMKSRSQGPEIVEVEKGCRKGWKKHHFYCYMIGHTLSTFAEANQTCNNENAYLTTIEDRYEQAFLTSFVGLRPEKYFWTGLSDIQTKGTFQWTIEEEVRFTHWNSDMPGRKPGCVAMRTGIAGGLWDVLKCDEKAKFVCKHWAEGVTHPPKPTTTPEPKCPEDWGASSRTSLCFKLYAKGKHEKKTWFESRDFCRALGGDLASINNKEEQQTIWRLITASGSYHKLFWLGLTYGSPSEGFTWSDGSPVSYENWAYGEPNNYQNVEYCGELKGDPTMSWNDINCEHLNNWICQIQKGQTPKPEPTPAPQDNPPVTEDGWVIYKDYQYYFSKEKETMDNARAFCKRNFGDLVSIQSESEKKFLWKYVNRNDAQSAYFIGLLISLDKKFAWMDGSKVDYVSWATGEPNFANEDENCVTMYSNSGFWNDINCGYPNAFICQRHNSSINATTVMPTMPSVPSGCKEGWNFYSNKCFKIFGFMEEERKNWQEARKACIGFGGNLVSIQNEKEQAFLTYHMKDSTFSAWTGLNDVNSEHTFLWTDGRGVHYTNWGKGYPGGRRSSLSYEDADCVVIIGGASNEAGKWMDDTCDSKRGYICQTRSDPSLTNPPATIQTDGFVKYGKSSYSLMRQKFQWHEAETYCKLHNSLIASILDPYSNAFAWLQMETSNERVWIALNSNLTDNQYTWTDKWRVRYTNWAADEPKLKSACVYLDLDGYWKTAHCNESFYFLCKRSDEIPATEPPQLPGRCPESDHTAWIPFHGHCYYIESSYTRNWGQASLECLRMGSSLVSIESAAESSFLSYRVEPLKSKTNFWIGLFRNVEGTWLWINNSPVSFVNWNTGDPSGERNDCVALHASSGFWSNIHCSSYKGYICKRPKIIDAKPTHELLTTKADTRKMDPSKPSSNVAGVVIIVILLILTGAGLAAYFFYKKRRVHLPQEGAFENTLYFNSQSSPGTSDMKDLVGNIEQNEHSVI
Briefly: Quartz Crystal Microbalance (QCM) binding to PAH/CD206 multilayer. As to conditions: peptides 10µM in PBS, curve fitting, read-out: constant of association. From the text:
To confirm the capacity of MACTIDE to bind to CD206, we evaluated binding to recombinant CD206 included in a viscoelastic film, using Quartz Crystal Microbalance (QCM). QCM is a powerful technique used to study label-free ligand-receptor interactions in solution (Baltus, R. E. et al., Langmuir 2007, 23 (7), 3880-3885), wherein peptide binding and dissociation is sensed through a mass increase or decrease on a resonating crystal surface functionalized with the receptor. Here, we evaluated the mass changes of MACTIDE when binding and dissociating in solution to CD206 immobilized on a viscoelastic film, deposited on a gold-modified quartz crystal resonating at 5 MHz. […]
The Quartz Crystal Microbalance (QCM) used was QCM200 system from Stanford Research Systems (Sunnyvale, CA, USA). […] Then, a baseline with 500µL of mQ at pH 8 was recorded, the measurement was paused and then 5µL of a 1mg/mL solution in PBS were added (human recombinant CD206, Cat # 2534-MR-050/CF from R&D systems, reconstituted with 50µL of mQ); final concentration of CD206 in the cell: 0.01 mg/mL. […] For peptides, 500µL of PBS were placed in the cell and the baseline was recorded, the measurement was then paused and 50µL of a 100µM solution of peptides in PBS were gently deposited on the cell and the measurement was resumed. […]

The test system of series [1] is IL4-stimulated macrophages. Briefly: In vitro photodynamic therapy, MTT cell viability, IL4-stimulated macrophages. It is filed as cell-based, human. The following applies: with and without irradiation, 30µM.
Series [2] concerns (LPS + IFNy)-stimulated macrophages. As to the kind of experiment: In vitro photodynamic therapy, MTT cell viability, (LPS + IFNγ)-stimulated macrophages. It is filed as cell-based, human. The following applies: with and without irradiation, 30µM.
For series [3] the following is noted: mouse, in vivo.
The target in series [4] is T2, Bovine Serum Albumin (BSA, Cat # A7906, Sigma-Aldrich) (bovine, UniProt P02769 25-607).
T2 construct: Control protein deposited on PAH as the control multilayer; also called PAH/BSA control multilayer
T2 sequence (P02769 25-607 limits assumed): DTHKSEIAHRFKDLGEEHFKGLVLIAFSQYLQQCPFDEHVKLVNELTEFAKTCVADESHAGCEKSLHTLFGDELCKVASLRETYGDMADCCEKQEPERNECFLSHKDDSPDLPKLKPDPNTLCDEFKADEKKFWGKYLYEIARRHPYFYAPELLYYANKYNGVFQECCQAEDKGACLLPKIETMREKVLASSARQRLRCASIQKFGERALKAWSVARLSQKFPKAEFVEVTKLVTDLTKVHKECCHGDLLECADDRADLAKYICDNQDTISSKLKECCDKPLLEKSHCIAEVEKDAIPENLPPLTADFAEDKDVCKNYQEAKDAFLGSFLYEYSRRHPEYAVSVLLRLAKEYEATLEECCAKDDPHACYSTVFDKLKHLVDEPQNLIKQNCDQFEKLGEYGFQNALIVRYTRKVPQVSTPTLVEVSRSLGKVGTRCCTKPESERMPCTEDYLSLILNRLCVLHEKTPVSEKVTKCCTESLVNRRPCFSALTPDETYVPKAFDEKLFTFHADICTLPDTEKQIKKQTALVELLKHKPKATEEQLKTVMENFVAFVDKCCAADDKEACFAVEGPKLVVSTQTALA
As to the kind of experiment: QCM, peptide in PBS on PAH/BSA control multilayer.

Series [5] deals with T3, human recombinant CD206 (Cat # 2534-MR-050/CF from R&D systems) (human, UniProt P22897 19-1383, limits assumed).
T3 construct: Bought recombinant protein; also called Macrophage Mannose Receptor 1; PAH/CD206 multilayer
T3 sequence: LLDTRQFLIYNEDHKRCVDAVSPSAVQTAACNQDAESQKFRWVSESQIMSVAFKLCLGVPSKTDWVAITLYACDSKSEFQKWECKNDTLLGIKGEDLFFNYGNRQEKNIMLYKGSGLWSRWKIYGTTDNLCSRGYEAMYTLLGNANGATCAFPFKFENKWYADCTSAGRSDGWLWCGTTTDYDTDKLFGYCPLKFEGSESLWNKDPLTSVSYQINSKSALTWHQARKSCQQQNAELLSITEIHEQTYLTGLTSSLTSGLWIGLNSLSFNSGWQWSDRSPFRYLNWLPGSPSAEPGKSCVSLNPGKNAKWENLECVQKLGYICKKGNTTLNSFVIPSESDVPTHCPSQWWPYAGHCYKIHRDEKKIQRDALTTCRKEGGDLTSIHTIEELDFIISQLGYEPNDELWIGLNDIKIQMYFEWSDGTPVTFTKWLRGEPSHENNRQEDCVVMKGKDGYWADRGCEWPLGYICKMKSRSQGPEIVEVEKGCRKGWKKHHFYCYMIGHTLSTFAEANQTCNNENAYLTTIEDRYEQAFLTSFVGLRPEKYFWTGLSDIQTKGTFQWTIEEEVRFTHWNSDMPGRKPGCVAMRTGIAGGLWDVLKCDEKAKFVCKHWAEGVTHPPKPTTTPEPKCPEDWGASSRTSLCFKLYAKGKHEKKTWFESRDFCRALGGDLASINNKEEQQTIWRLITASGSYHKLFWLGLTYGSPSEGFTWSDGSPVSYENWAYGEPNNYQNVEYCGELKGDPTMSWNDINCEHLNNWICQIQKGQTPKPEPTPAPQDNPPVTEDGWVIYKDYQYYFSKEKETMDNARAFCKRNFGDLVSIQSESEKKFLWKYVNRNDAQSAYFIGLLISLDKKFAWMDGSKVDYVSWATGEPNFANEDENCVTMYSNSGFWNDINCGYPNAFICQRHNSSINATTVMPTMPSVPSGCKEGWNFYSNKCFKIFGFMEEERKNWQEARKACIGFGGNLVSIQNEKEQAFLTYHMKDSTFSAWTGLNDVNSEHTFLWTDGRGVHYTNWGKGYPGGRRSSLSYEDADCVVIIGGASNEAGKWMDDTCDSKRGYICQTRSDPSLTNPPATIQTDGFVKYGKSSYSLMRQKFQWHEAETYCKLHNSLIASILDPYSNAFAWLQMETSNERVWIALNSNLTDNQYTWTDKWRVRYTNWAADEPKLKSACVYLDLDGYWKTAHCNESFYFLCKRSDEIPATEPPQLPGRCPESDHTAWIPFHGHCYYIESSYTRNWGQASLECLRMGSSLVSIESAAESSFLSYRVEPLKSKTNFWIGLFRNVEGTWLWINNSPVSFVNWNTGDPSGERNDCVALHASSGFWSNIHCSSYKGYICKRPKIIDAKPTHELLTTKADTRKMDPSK
Briefly: QCM, PAH/CD206 multilayer, curves fitted with TraceDrawer.

The target of series [6] is T3, human recombinant CD206 (Cat # …). As to the kind of experiment: QCM (summary of example 3, Fig. 3).

Bridge positions count the residues as written; N and C are the ends. Ends that are not written are not given here. Peptide text beside a SMILES is read from it. * marks the point of attachment. 5FAM = O=C1OC2(c3ccc(O)cc3Oc3cc(O)ccc32)c2ccc(C(=O)*)cc21; Vert = not defined here; Ahx = NCCCCCC(=O)O

With `CC[C@H](C)[C@@H]1NC(=O)[C@@H]2CCCN2C(=O)[C@@H]2CCCN2C(=O)[C@H]([C@@H](C)CC)NC(=O)[C@H](CO)NC(=O)[C@H](CCCCN)NC(=O)[C@H]([C@@H](C)O)NC(=O)[C@@H](NC(=O)CN)CSSC[C@@H](C(=O)N[C@@H](CO)C(=O)N2CCC[C@H]2C(=O)NCC(=O)N[C@@H](C)C(=O)N[C@@H](CCCCN)C(=O)O)NC1=O` [MACTIDE, GCTKSIPPICSPGAK] (H-GCTKSIPPICSPGAK-OH; disulfide 2-10), at human recombinant CD206, the kon at 10 µM was determined as 650 M⁻¹ s⁻¹.
Regarding “Vert-CtrlPep: control conjugate, Vert-Ahx- on AKPCGS (SEQ ID NO: 8) ({Vert-Ahx}-AKPCGS; reading uncertain)”, the toxicity entry in series [1] and in series [2] was “no toxicity” in each case.
For CSPGAK [mUNO, CSPGAK], on human recombinant CD206, the kon at 10 µM was determined as 1400 M⁻¹ s⁻¹.
Consider `CC[C@H](C)[C@@H]1NC(=O)[C@@H]2CCCN2C(=O)[C@@H]2CCCN2C(=O)[C@H]([C@@H](C)CC)NC(=O)[C@H](CO)NC(=O)[C@H](CCCCN)NC(=O)[C@H]([C@@H](C)O)NC(=O)[C@@H](NC(=O)CNC(=O)CCCCCNC(=O)c2ccc3c(c2)C(=O)OC32c3ccc(O)cc3Oc3cc(O)ccc32)CSSC[C@@H](C(=O)N[C@@H](CO)C(=O)N2CCC[C@H]2C(=O)NCC(=O)N[C@@H](C)C(=O)N[C@@H](CCCCN)C(=O)O)NC1=O` [FAM-MACTIDE] ({5FAM-Ahx}-GCTKSIPPICSPGAK-OH; disulfide 2-10), for which, in series [3], the blood half-life result is “the same as those obtained previously for FAM-mUNO”.

B1: mUNO (peptide)
peptide: CSPGAK
notes: also called mUNO peptide
Turning to B1, the binding result in series [4] is “no binding (tested: 10µM)”. In series [5], the Kd was found to be 6 µM, the koff worked out at 0.0087 s⁻¹ and the kon stood at 1400 M⁻¹ s⁻¹.

B2: MACTIDE (peptide)
peptide: GCTKSIPPICSPGAK
modifications: disulfide 2-10
notes: Monocyclic through the C2-C10 disulfide; also called the peptide of the invention
As for B2, the “fold higher affinity (against mUNO)” value in series [6] turned out to be 15 fold. For the same molecule, in series [4], the binding result was “no binding (tested: 10µM)”. For the same molecule, in series [5], the Kd stood at 0.38 µM, the “fold slower dissociation constant against mUNO” value is 30 fold, the off-rate (koff) was found to be 0.00025 s⁻¹ and the kon came to 650 M⁻¹ s⁻¹.

Values taken from patent publication EP4624485A1, “PEPTIDE THAT TARGETS MACROPHAGES AND USES THEREOF” (Consejo Superior De Investigaciones Científicas, priority 2024, dated 2025).
